Data reported in the Human Domainome abundance scans (Beltran et al. 2025).
± gives the uncertainty stated by the source.

B1: Far upstream element-binding protein 1, residues 184 to 257; numbered along this chain, Q96AE4 (parent)
chain: GNAVQEIMIPASKAGLVIGKGGETIKQLQERAGVKMVMIQDGPQNTGADKPLRITGDPYKVQQAKEMVLELIRD

Variants of: B1
Experiment: abundance fitness (aPCA) (normalised: wild type 0, dead -1); higher = more abundant; growth selection in yeast, the domain comes from the species named
Conditions: Homo sapiens

GNAVQEIMIPASKAGLVIGKGGETIKQLQERAGVKMVMIQDGPQNTGADKPLRITGDPYKVCQAKEMVLELIRD [Q62C] and GNAVQEIMIPASKAGLVIGKGGETIKQLQERAGVKMVMIQDGPQNTGADKPLRITGDPYKVKQAKEMVLELIRD [Q62K] are within error of each other in abundance fitness: -0.037 ± 0.041 for the first, -0.022 ± 0.035 for the second.

GNAVQEIMIPASKAGLVIGKGGETIKQLQERAGVKMVMIQDGPQNTGADKPLRITGDPYKVYQAKEMVLELIRD [Q62Y] and GNAVQEIMIPASKAGLVIGKGGETIKQLQERAGVKMVMIQDGPQNTGADKPLRITGDPYKVEQAKEMVLELIRD [Q62E] are within error of each other in abundance fitness: -0.04 ± 0.051 for the first, 0.02 ± 0.034 for the second.

GNAVQEIMIPASKAGLVIGKGGETIKQLQERAGVKMVMIQDGPQNTGADKPLRITGDPYKVAQAKEMVLELIRD [Q62A] and GNAVQEIMIPASKAGLVIGKGGETIKQLQERAGVKMVMIQDGPQNTGADKPLRITGDPYKVVQAKEMVLELIRD [Q62V] are within error of each other in abundance fitness: 0.007 ± 0.03 for the first, -0.049 ± 0.03 for the second.

GNAVQEIMIPASKAGLVIGKGGETIKQLQERAGVKMVMIQDGPQNTGADKPLRITGDPYKVMQAKEMVLELIRD [Q62M] and GNAVQEIMIPASKAGLVIGKGGETIKQLQERAGVKMVMIQDGPQNTGADKPLRITGDPYKVFQAKEMVLELIRD [Q62F] are within error of each other in abundance fitness: -0.075 ± 0.041 for the first, -0.105 ± 0.048 for the second.

GNAVQEIMIPASKAGLVIGKGGETIKQLQERAGVKMVMIQDGPQNTGADKPLRITGDPYKVTQAKEMVLELIRD [Q62T] and GNAVQEIMIPASKAGLVIGKGGETIKQLQERAGVKMVMIQDGPQNTGADKPLRITGDPYKVHQAKEMVLELIRD [Q62H] are within error of each other in abundance fitness: -0.011 ± 0.035 for the first, -0.069 ± 0.047 for the second.

GNAVQEIMIPASKAGLVIGKGGETIKQLQERAGVKMVMIQDGPQNTGADKPLRITGDPYKVNQAKEMVLELIRD [Q62N] and GNAVQEIMIPASKAGLVIGKGGETIKQLQERAGVKMVMIQDGPQNTGADKPLRITGDPYKVRQAKEMVLELIRD [Q62R] are within error of each other in abundance fitness: -0.097 ± 0.044 for the first, -0.059 ± 0.026 for the second.

First: GNAVQEIMIPASKAGLVIGKGGETIKQLQERAGVKMVMIQDGPQNTGADKPLRITGDPYKVWQAKEMVLELIRD [Q62W]
Second: GNAVQEIMIPASKAGLVIGKGGETIKQLQERAGVKMVMIQDGPQNTGADKPLRITGDPYKVGQAKEMVLELIRD [Q62G]
The abundance fitness of the first is lower: -0.114 ± 0.035 for the first, -0.03 ± 0.027 for the second.

First: GNAVQEIMIPASKAGLVIGKGGETIKQLQERAGVKMVMIQDGPQNTGADKPLRITGDPYKWQQAKEMVLELIRD [V61W]
Second: GNAVQEIMIPASKAGLVIGKGGETIKQLQERAGVKMVMIQDGPQNTGADKPLRITGDPYKCQQAKEMVLELIRD [V61C]
The abundance fitness of the first is lower: -1.17 ± 0.077 for the first, -0.062 ± 0.042 for the second.

First: GNAVQEIMIPASKAGLVIGKGGETIKQLQERAGVKMVMIQDGPQNTGADKPLRITGDPYKMQQAKEMVLELIRD [V61M]
Second: GNAVQEIMIPASKAGLVIGKGGETIKQLQERAGVKMVMIQDGPQNTGADKPLRITGDPYKDQQAKEMVLELIRD [V61D]
The abundance fitness of the first is higher: -0.236 ± 0.048 for the first, -0.881 ± 0.073 for the second.

Going from GNAVQEIMIPASKAGLVIGKGGETIKQLQERAGVKMVMIQDGPQNTGADKPLRITGDPYKGQQAKEMVLELIRD [V61G] to GNAVQEIMIPASKAGLVIGKGGETIKQLQERAGVKMVMIQDGPQNTGADKPLRITGDPYKLQQAKEMVLELIRD [V61L], the abundance fitness rises from -0.627 ± 0.03 to -0.286 ± 0.031.

Going from GNAVQEIMIPASKAGLVIGKGGETIKQLQERAGVKMVMIQDGPQNTGADKPLRITGDPYKQQQAKEMVLELIRD [V61Q] to GNAVQEIMIPASKAGLVIGKGGETIKQLQERAGVKMVMIQDGPQNTGADKPLRITGDPYKEQQAKEMVLELIRD [V61E], the abundance fitness falls from -0.528 ± 0.046 to -0.787 ± 0.049.

GNAVQEIMIPASKAGLVIGKGGETIKQLQERAGVKMVMIQDGPQNTGADKPLRITGDPYKHQQAKEMVLELIRD [V61H] and GNAVQEIMIPASKAGLVIGKGGETIKQLQERAGVKMVMIQDGPQNTGADKPLRITGDPYKNQQAKEMVLELIRD [V61N] are within error of each other in abundance fitness: -0.814 ± 0.07 for the first, -0.764 ± 0.066 for the second.

Compared with GNAVQEIMIPASKAGLVIGKGGETIKQLQERAGVKMVMIQDGPQNTGADKPLRITGDPYKRQQAKEMVLELIRD [V61R], GNAVQEIMIPASKAGLVIGKGGETIKQLQERAGVKMVMIQDGPQNTGADKPLRITGDPYKSQQAKEMVLELIRD [V61S] is higher in abundance fitness: -0.672 ± 0.032 for the first, -0.427 ± 0.033 for the second.

GNAVQEIMIPASKAGLVIGKGGETIKQLQERAGVKMVMIQDGPQNTGADKPLRITGDPYKTQQAKEMVLELIRD [V61T] and GNAVQEIMIPASKAGLVIGKGGETIKQLQERAGVKMVMIQDGPQNTGADKPLRITGDPYKIQQAKEMVLELIRD [V61I] are within error of each other in abundance fitness: -0.154 ± 0.034 for the first, -0.091 ± 0.05 for the second.

Compared with GNAVQEIMIPASKAGLVIGKGGETIKQLQERAGVKMVMIQDGPQNTGADKPLRITGDPYKKQQAKEMVLELIRD [V61K], GNAVQEIMIPASKAGLVIGKGGETIKQLQERAGVKMVMIQDGPQNTGADKPLRITGDPYKFQQAKEMVLELIRD [V61F] is higher in abundance fitness: -0.847 ± 0.06 for the first, -0.599 ± 0.063 for the second.

Going from GNAVQEIMIPASKAGLVIGKGGETIKQLQERAGVKMVMIQDGPQNTGADKPLRITGDPYKAQQAKEMVLELIRD [V61A] to GNAVQEIMIPASKAGLVIGKGGETIKQLQERAGVKMVMIQDGPQNTGADKPLRITGDPYKPQQAKEMVLELIRD [V61P], the abundance fitness falls from -0.22 ± 0.031 to -0.758 ± 0.044.

First: GNAVQEIMIPASKAGLVIGKGGETIKQLQERAGVKMVMIQDGPQNTGADKPLRITGDPYKVQQWKEMVLELIRD [A64W]
Second: GNAVQEIMIPASKAGLVIGKGGETIKQLQERAGVKMVMIQDGPQNTGADKPLRITGDPYKVQQLKEMVLELIRD [A64L]
The abundance fitness of the first is lower: -1.2 ± 0.07 for the first, -0.839 ± 0.043 for the second.

Going from GNAVQEIMIPASKAGLVIGKGGETIKQLQERAGVKMVMIQDGPQNTGADKPLRITGDPYKVQQKKEMVLELIRD [A64K] to GNAVQEIMIPASKAGLVIGKGGETIKQLQERAGVKMVMIQDGPQNTGADKPLRITGDPYKVQQYKEMVLELIRD [A64Y], the abundance fitness falls from -0.758 ± 0.053 to -0.98 ± 0.11.

Variant GNAVQEIMIPASKAGLVIGKGGETIKQLQERAGVKMVMIQDGPQNTGADKPLRITGDPYKVQQRKEMVLELIRD [A64R] has an abundance fitness of -0.853 ± 0.035.
